Experiments:
[1] = molecular target: human FcγRIIb extracellular domain with C-terminal His-tag (human) (UniProt P31994); experiment: SPR; binding amount / that of 04H1637-G1m/04L1610-lam1
[2] = molecular target: human FcγRIIb extracellular domain with C-terminal His-tag (human) (UniProt P31994); experiment: SPR (Biacore T200), FcγRIIb 1000 nM, amount bound per unit captured antibody

human FcγRIIb extracellular domain with C-terminal His-tag (human), sequence (P31994 43-217): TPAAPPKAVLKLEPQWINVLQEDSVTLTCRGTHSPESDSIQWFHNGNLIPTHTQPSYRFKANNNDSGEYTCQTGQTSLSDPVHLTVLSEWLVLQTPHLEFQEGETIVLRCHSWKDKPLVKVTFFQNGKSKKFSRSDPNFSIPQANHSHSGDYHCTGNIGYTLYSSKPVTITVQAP

Row | Relative binding amount [1] | Binding amount [2] | Binder
1 | 3.1 | 0.025 | 04H1654-KT462/04L1610-lam1//04H1656-HT445/04L1610-lam1 (antibody, human IgG1, lambda) heavy 1: QVQLVESGGGVVQPGGSLRLSCAASGFTFSSKTMNWVRQAPGKGLEWVSSISTQSHYIYYARSVRGRFTISRDNAKNSLYLQMNSLRAEDTAVYYCARYGKREDMLWVFDYWGQGTLVTVSSASTKGPSVFPLAPSSKSTSGGTAALGCLVKDYFPEPVTVSWNSGALTSGVHTFPAVLQSSGLYSLSSVVTVPSSSLGTQTYICNVNHKPSNTKVDKRVEPKSCDKTHTCPPCPAPEFQWGPMVFLFPPKPKDVLMISRTPEVTCVVVDVSDEEPEVKFNWYVDGVEVHNAKTKPREEQYNATYRVVSVLPVLHQDWLNGKEYKCKVSNDALPAPIEKTISKAKGQPREPQVYTLPPSRKEMTKNQVSLTCLVKGFYPSDIAVEWESNGQPENNYKTTPPVLDSDGSFFLYSKLTVDKSRWQQGNVFSCSVMHEALHNHYTQKSLSLSP heavy 2: QVQLVESGGGVVQPGGSLRLSCAASGFTFSSKTMNWVRQAPGKGLEWVSSISTQSHYIYYAESVRGRFTISRDNAKNSLYLQMNSLRAEDTAVYYCARYGAREDMLWVFDYWGQGTLVTVSSASTKGPSVFPLAPSSKSTSGGTAALGCLVKDYFPEPVTVSWNSGALTSGVHTFPAVLQSSGLYSLSSVVTVPSSSLGTQTYICNVNHKPSNTKVDKRVEPKSCDKTHTCPPCPAPELLAGPSVFLFPPKPKDVLMISRTPEVTCVVVDVSHEEPEVKFNWYVDGVEVHNAKTKPREEQYNATYRVVSVLPVLHQDWLNGKEYKCKVSNDALPKPDEETISKAKGQPREPQVYTLPPSREEMTKNQVSLTCLVKGFYPSDIAVEWESNGQPENNYKTTPPVLDSDGSFFLYSKLTVDKSRWQQGNVFSCSVMHEALHNHYTQESLSLSP light: QSALTQPPSASGSPGQSVTISCEGPSTGVGDYNWVHWYQQHPGKAPKLMIYFTSKKPSGVPDRFSGSKSGNTASLTVSGLQAEDEADYYCQTYAAPLGPMFGGGTKLTVLGQPKAAPSVTLFPPSSEELQANKATLVCLISDFYPGAVTVAWKADSSPVKAGVETTTPSKQSNNKYAASSYLSLTPEQWKSHRSYSCQVTHEGSTVEKTVAPTECS
2 | 3.1 | 0.025 | 04H1654-KT461/04L1610-lam1//04H1656-HT443/04L1610-lam1 (antibody, human IgG1, lambda) heavy 1: QVQLVESGGGVVQPGGSLRLSCAASGFTFSSKTMNWVRQAPGKGLEWVSSISTQSHYIYYARSVRGRFTISRDNAKNSLYLQMNSLRAEDTAVYYCARYGKREDMLWVFDYWGQGTLVTVSSASTKGPSVFPLAPSSKSTSGGTAALGCLVKDYFPEPVTVSWNSGALTSGVHTFPAVLQSSGLYSLSSVVTVPSSSLGTQTYICNVNHKPSNTKVDKRVEPKSCDKTHTCPPCPAPEFQWGPMVFLFPPKPKDVLMISRTPEVTCVVVDVSDEEPEVKFNWYVDGVEVHNAKTKPREEQYNATYRVVSVLPVLHQDWLNGKEYKCKVSNDALPAPEEKTISKAKGQPREPQVYTLPPSRKEMTKNQVSLTCLVKGFYPSDIAVEWESNGQPENNYKTTPPVLDSDGSFFLYSKLTVDKSRWQQGNVFSCSVMHEALHNHYTQKSLSLSP heavy 2: QVQLVESGGGVVQPGGSLRLSCAASGFTFSSKTMNWVRQAPGKGLEWVSSISTQSHYIYYAESVRGRFTISRDNAKNSLYLQMNSLRAEDTAVYYCARYGAREDMLWVFDYWGQGTLVTVSSASTKGPSVFPLAPSSKSTSGGTAALGCLVKDYFPEPVTVSWNSGALTSGVHTFPAVLQSSGLYSLSSVVTVPSSSLGTQTYICNVNHKPSNTKVDKRVEPKSCDKTHTCPPCPAPELLAGPSVFLFPPKPKDVLMISRTPEVTCVVVDVSHEEPEVKFNWYVDGVEVHNAKTKPREEQYNATYRVVSVLPVLHQDWLNGKEYKCKVSNDALPAPEEETISKAKGQPREPQVYTLPPSREEMTKNQVSLTCLVKGFYPSDIAVEWESNGQPENNYKTTPPVLDSDGSFFLYSKLTVDKSRWQQGNVFSCSVMHEALHNHYTQESLSLSP light: QSALTQPPSASGSPGQSVTISCEGPSTGVGDYNWVHWYQQHPGKAPKLMIYFTSKKPSGVPDRFSGSKSGNTASLTVSGLQAEDEADYYCQTYAAPLGPMFGGGTKLTVLGQPKAAPSVTLFPPSSEELQANKATLVCLISDFYPGAVTVAWKADSSPVKAGVETTTPSKQSNNKYAASSYLSLTPEQWKSHRSYSCQVTHEGSTVEKTVAPTECS
3 | 3.2 | 0.026 | 04H1654-KT473/04L1610-lam1//04H1656-HT482/04L1610-lam1 (antibody) heavy 1: QVQLVESGGGVVQPGGSLRLSCAASGFTFSSKTMNWVRQAPGKGLEWVSSISTQSHYIYYARSVRGRFTISRDNAKNSLYLQMNSLRAEDTAVYYCARYGKREDMLWVFDYWGQGTLVTVSSASTKGPSVFPLAPSSKSTSGGTAALGCLVKDYFPEPVTVSWNSGALTSGVHTFPAVLQSSGLYSLSSVVTVPSSSLGTQTYICNVNHKPSNTKVDKRVEPKSCDKTHTCPPCPAPEFQWGPMVFLFPPKPKDVLMISRTPEVTCVVVDVSDEEPEVKFNWYVDGVEVHNAKTKPREEQYNATYRVVSVLPVLHQDWLNGKEYKCKVSNDALPAPIEKTISKAKGQPREPQVYTLPPSRKEMTKNQVSLTCLVKGFYPSDIAVEWESNGQPENNYKTTPPVLDSDGSFFLYSKLTVDKSRWQQGNVFSCSVMHEALHAHTTRKELSLSP heavy 2: QVQLVESGGGVVQPGGSLRLSCAASGFTFSSKTMNWVRQAPGKGLEWVSSISTQSHYIYYAESVRGRFTISRDNAKNSLYLQMNSLRAEDTAVYYCARYGAREDMLWVFDYWGQGTLVTVSSASTKGPSVFPLAPSSKSTSGGTAALGCLVKDYFPEPVTVSWNSGALTSGVHTFPAVLQSSGLYSLSSVVTVPSSSLGTQTYICNVNHKPSNTKVDKRVEPKSCDKTHTCPPCPAPELLAGPSVFLFPPKPKDVLMISRTPEVTCVVVDVSHEEPEVKFNWYVDGVEVHNAKTKPREEQYNATYRVVSVLPVLHQDWLNGKEYKCKVSNDALPKPDEETISKAKGQPREPQVYTLPPSREEMTKNQVSLTCLVKGFYPSDIAVEWESNGQPENNYKTTPPVLDSDGSFFLYSKLTVDKSRWQQGNVFSCSVMHEALHAHTTREELSLSP light: QSALTQPPSASGSPGQSVTISCEGPSTGVGDYNWVHWYQQHPGKAPKLMIYFTSKKPSGVPDRFSGSKSGNTASLTVSGLQAEDEADYYCQTYAAPLGPMFGGGTKLTVLGQPKAAPSVTLFPPSSEELQANKATLVCLISDFYPGAVTVAWKADSSPVKAGVETTTPSKQSNNKYAASSYLSLTPEQWKSHRSYSCQVTHEGSTVEKTVAPTECS
4 | 2.7 | 0.022 | 04H1654-KT481/04L1610-lam1//04H1656-HT498/04L1610-lam1 (antibody) heavy 1: QVQLVESGGGVVQPGGSLRLSCAASGFTFSSKTMNWVRQAPGKGLEWVSSISTQSHYIYYARSVRGRFTISRDNAKNSLYLQMNSLRAEDTAVYYCARYGKREDMLWVFDYWGQGTLVTVSSASTKGPSVFPLAPSSKSTSGGTAALGCLVKDYFPEPVTVSWNSGALTSGVHTFPAVLQSSGLYSLSSVVTVPSSSLGTQTYICNVNHKPSNTKVDKRVEPKSCDKTHTCPPCPAPEFQWGPMVFLFPPKPKDVLMISRTPEVTCVVVDVSDEEPEVKFNWYVDGVEVHNAKTKPREEQYNATYRVVSVLPVLHQDWLNGKEYKCKVSNDALPAPEEKTISKAKGQPREPQVYTLPPSRKEMTKNQVSLTCLVKGFYPSDIAVEWESNGQPENNYKTTPPVLDSDGSFFLYSKLTVDKSRWQQGNVFSCSVMHEALHAHTTRKELSLSP heavy 2: QVQLVESGGGVVQPGGSLRLSCAASGFTFSSKTMNWVRQAPGKGLEWVSSISTQSHYIYYAESVRGRFTISRDNAKNSLYLQMNSLRAEDTAVYYCARYGAREDMLWVFDYWGQGTLVTVSSASTKGPSVFPLAPSSKSTSGGTAALGCLVKDYFPEPVTVSWNSGALTSGVHTFPAVLQSSGLYSLSSVVTVPSSSLGTQTYICNVNHKPSNTKVDKRVEPKSCDKTHTCPPCPAPELLAGPSVFLFPPKPKDVLMISRTPEVTCVVVDVSHEEPEVKFNWYVDGVEVHNAKTKPREEQYNATYRVVSVLPVLHQDWLNGKEYKCKVSNDALPAPEEETISKAKGQPREPQVYTLPPSREEMTKNQVSLTCLVKGFYPSDIAVEWESNGQPENNYKTTPPVLDSDGSFFLYSKLTVDKSRWQQGNVFSCSVMHEALHAHTTREELSLSP light: QSALTQPPSASGSPGQSVTISCEGPSTGVGDYNWVHWYQQHPGKAPKLMIYFTSKKPSGVPDRFSGSKSGNTASLTVSGLQAEDEADYYCQTYAAPLGPMFGGGTKLTVLGQPKAAPSVTLFPPSSEELQANKATLVCLISDFYPGAVTVAWKADSSPVKAGVETTTPSKQSNNKYAASSYLSLTPEQWKSHRSYSCQVTHEGSTVEKTVAPTECS

From patent EP4361176A1
